Data reported in US20140199327A1, “METHODS OF PROMOTING DIFFERENTIATION” (Genentech, Inc., priority 2011, published 2014).

Columns and labels:
Experiment in all cases: Flag immunoprecipitation of DUBs from 293T cells cotransfected with ID2, MG-132 treated (FIG. 2B)
[1] = target: T1, USP45-Flag (human USP45 with C-terminal Flag epitope) (human, UniProt Q70EL2 1-814, limits assumed)
T1 sequence (looked up): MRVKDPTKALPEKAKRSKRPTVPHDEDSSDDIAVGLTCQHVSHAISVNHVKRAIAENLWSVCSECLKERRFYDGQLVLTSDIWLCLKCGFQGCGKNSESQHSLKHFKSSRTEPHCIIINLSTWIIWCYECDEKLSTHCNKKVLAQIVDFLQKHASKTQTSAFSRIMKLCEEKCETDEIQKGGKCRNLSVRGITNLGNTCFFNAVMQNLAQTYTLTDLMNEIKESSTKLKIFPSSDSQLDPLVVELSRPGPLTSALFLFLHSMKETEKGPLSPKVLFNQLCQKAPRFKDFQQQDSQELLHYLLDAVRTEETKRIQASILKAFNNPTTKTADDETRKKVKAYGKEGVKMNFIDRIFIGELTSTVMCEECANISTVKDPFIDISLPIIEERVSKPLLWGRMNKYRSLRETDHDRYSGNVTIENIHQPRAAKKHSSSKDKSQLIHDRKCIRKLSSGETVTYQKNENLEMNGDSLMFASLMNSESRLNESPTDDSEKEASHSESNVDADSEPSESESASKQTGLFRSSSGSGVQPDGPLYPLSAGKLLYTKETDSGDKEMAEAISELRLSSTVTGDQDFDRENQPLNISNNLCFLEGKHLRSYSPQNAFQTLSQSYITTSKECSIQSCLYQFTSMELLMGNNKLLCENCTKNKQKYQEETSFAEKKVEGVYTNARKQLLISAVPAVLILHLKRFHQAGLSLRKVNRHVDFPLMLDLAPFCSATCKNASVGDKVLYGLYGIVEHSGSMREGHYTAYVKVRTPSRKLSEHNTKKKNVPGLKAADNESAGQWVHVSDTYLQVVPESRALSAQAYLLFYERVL
Experimental: (§1) FIG. 2. […] (A) Western blot (WB) analysis of 293T transfected with Flag-tagged deubiquitinases (DUBs) or an empty vector (−). Where indicated, cells were treated with […] MG-132 for 4 hr. (B) Flag-tagged DUBs were immunoprecipitated (IP) from 293T cells cotransfected with ID2 and treated with […] MG-132 for 6 hr.

[2] = target: SENP3-Flag (human SENP3 with C-terminal Flag epitope) (human, UniProt Q9H4L4 1-574, limits assumed)
Sequence of SENP3-Flag (human SENP3 with C-terminal Flag epitope) (Q9H4L4 whole entry): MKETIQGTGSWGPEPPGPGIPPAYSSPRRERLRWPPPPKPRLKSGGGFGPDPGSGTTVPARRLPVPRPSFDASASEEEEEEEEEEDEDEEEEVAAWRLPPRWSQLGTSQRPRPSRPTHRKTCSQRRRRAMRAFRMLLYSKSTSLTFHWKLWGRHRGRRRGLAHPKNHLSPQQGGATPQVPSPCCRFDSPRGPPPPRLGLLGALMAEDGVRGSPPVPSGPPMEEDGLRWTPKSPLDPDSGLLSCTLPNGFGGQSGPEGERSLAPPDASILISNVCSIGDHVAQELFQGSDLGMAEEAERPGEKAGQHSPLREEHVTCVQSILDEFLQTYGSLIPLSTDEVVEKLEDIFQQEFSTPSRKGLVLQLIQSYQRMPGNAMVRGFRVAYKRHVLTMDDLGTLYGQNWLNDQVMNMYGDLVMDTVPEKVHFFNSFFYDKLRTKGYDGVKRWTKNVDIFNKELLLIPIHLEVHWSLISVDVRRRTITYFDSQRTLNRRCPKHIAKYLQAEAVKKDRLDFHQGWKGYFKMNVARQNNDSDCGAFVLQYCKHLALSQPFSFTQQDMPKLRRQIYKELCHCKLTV
Experimental: as §1

[3] = target: T2, OTUD5-Flag (human OTUD5 with C-terminal Flag epitope) (human, UniProt Q96G74 1-571, limits assumed)
T2 sequence (looked up): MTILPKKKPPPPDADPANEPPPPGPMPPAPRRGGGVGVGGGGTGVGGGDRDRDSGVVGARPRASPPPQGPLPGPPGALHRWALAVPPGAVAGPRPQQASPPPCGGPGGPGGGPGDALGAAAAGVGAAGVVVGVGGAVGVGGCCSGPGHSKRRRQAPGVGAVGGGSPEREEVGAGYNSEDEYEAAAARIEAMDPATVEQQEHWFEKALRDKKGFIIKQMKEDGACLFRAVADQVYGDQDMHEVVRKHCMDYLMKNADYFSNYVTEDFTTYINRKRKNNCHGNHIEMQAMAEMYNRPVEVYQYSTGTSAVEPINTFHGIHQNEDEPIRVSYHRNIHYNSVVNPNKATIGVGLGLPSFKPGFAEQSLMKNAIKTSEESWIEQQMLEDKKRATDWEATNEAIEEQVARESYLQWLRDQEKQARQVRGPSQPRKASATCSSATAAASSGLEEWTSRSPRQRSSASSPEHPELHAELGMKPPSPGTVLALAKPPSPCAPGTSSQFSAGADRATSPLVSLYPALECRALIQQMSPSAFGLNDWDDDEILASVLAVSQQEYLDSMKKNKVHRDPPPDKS
Experimental: as §1

[4] = target: T3, USP36-Flag (human USP36 with C-terminal Flag epitope) (human, UniProt Q9P275 1-1123, limits assumed)
T3 sequence (looked up): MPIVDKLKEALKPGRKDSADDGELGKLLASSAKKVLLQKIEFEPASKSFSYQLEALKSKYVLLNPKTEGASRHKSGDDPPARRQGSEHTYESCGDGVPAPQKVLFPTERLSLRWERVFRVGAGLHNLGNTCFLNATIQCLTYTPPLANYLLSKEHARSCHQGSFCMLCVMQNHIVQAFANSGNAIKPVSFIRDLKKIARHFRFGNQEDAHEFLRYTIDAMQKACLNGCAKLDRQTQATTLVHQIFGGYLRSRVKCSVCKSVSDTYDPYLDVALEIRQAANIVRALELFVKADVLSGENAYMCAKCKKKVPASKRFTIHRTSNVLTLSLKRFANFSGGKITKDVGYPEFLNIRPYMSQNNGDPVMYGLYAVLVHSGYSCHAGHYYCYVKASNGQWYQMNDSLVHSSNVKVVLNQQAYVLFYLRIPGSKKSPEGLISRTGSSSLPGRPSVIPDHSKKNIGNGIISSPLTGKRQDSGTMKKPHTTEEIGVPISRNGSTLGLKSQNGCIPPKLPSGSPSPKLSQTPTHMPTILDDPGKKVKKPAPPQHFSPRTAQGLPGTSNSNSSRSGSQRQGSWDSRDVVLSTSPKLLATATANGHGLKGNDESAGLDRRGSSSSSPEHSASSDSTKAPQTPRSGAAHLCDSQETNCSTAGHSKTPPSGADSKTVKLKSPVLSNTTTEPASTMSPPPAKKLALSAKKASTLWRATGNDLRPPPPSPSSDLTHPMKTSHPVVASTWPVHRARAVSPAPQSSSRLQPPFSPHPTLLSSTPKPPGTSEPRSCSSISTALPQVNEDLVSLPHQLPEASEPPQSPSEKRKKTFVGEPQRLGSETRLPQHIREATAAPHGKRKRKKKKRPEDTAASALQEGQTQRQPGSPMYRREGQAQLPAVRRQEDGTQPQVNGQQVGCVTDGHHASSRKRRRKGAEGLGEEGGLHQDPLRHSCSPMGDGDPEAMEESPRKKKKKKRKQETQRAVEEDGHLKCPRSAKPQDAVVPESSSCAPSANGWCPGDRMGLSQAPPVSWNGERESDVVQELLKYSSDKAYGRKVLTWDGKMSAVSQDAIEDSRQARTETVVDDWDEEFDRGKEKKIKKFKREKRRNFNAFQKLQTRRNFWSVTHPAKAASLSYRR
Experimental: as §1

binding result [1]: no binding | binding result [2]: no binding | binding result [3]: no binding | binding result [4]: no binding
B1: ID2 (co-transfected / co-expressed in 293T cells) (other)
chain: MKAFSPVRSVRKNSLSDHSLGISRSKTPVDDPMSLLYNMNDCYSKLKELVPSIPQNKKVSKMEILQHVIDYILDLQIALDSHPTIVSLHHQRPGQNQASRTPLTTLNTDISILSLQASEFPSELMSNDSKALCG
notes: ID2 was amplified from Jurkat-derived cDNA; The methods describe only a C-terminal Flag version in pRK2001
